The record followed here is article PMC8044712 (STAR Protocols, 2021).

This experiment addresses T1, ΔN100 y-mtRNAP (yeast mitochondrial RNA polymerase lacking the N-terminal 100 residues) (S. cerevisiae, UniProt P13433 101-1351).
T1 sequence (looked up): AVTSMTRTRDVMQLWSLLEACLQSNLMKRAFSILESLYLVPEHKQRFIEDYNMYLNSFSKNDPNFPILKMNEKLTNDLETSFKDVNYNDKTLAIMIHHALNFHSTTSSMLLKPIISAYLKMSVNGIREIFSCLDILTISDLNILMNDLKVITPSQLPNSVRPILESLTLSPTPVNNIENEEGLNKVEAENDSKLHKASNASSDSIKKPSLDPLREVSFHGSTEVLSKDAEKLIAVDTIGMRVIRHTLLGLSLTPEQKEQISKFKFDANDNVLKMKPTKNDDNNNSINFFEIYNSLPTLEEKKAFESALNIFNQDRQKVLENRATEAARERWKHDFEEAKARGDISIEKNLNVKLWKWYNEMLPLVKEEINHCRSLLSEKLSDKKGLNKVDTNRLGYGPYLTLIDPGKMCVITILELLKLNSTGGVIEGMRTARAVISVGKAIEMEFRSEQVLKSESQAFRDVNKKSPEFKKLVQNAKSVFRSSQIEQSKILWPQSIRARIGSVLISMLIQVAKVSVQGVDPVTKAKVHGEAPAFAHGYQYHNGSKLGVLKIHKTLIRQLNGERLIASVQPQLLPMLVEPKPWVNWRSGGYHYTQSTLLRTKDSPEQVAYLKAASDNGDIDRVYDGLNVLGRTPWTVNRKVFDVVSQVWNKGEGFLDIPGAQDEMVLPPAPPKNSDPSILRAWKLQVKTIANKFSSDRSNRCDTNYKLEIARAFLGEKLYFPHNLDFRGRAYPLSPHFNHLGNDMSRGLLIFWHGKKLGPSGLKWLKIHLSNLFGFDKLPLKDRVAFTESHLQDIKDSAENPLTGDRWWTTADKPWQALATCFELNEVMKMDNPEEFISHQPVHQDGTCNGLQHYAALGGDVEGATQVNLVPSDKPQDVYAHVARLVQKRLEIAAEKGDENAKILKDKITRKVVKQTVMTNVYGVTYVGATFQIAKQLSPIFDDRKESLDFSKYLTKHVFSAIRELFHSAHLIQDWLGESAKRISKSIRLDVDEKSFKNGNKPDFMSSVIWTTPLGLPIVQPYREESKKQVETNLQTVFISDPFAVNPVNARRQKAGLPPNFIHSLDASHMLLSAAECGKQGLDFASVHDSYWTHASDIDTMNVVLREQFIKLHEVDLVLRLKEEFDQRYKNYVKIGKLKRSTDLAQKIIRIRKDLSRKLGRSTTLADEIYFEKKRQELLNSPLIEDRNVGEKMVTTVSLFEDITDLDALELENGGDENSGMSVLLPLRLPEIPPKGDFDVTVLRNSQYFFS
As to the kind of experiment: cryo-EM structure.

B1: His-6 tagged MTF1 from S. cerevisiae (mitochondrial transcription initiation factor MTF1) (natural protein)
chain: SVPIPGIKDISKLKFFYGFKYLWNPTVYNKIFDKLDLTKTYKHPEELKVLDLYPGVGIQSAIFYNKYCPRQYSLLEKRSSLYKFLNAKFEGSPLQILKRDPYDWSTYSNLIDEERIFVPEVQSSDHINDKFLTVANVTGEGSEGLIMQWLSCIGNKNWLYRFGKVKMLLWMPSTTARKLLARPGMHSRSKCSVVREAFTDTKLIAISDANELKGFDSQCIEEWDPILFSAAEIWPTKGKPIALVEMDPIDFDFDVDNWDYVTRHLMILKRTPLNTVMDSLGHGGQQYFNSRITDKDLLKKCPIDLTNDEFIYLTKLFMEWPFKPDILMDFVDMYQTEHSG
On to B1, for which the binding result is reported as “binds”.
